Results: IntAct's records for PubMed 19959993

B1: Protein RED1 (Saccharomyces cerevisiae), P14291 (parent)
chain: MEGLKKKIFGVCLKNDLAQTRNETKGIHYGLMTLETSKQLQEFLHLLVIKREVIQNFELLFHIINVAVKITDSNLPSDDIWHFILKLRFSSEINIDEDSKVLNYLLETGIAMENPVSWKCLAVISSILSSVPQSKKIITNLIETEHAKKIGQLFDNIQDLQQGNFLVEILSNCFKKSASNSKKVEKIPQLWQSRSKNKFFFENEFYPFSSKNGSLQTCQFLCNNFMSTLSFTGILRQVSYSGSETLKNLRIFKKKDDENSYFIQCIYNKIYLWLDEKAPLEFERKKIRITKNLKNKIQIKLRQPFHECVRTTADKTALLFNKTKGFQLEFEDEKLGETFFHNVNNIPKISEVQNFLVLDYIEEEPENEGEEEEQIGRADEQKEDEEEESLDELSTPMVYPIKSSIPHNHNEKVQLVTPDRSVSIRSDEWDLKSNTEDEEGNVLADLKISSTKETKRQTDYVHIDSEDQSPVVSAQMRKMRRESTKTLEILRQEFKDKDVQNKEDQSEQIQNPFVNTSSLVVGKSCLVNPKEKPNIDQTVVGITELKSNSSIKKRDINILDTIFGQPPSKKQKQFHKKEKKKQQKKLTNFKPIIDVPSQDKRNLRSNAPTKPKSIKVSKLRTDKKVTGEKSSPETAAEKVDDQTVRSNDEQAMSRATKEKCFPDVNEGKEITKDDAKVSLESKKNNETFVDSSVVEKHTPPDKDCNNCNITDILESTTVIDLQSPHGLSAPGQNTFTNKLQEQIYSSINHFSNELVRKISIINQELNKKILKELSEKYQKLFSELQDNFQNDTNEMLKFMGEIKDMMNLPEDQLVHAIRTRKFDNNKR
B2: Synaptonemal complex protein ZIP1 (Saccharomyces cerevisiae), P31111 (parent)
chain: MSNFFRDSSMGFKPRPNIFAKLRVRDVDSDSSANTVVENSSNCLDVGSSIEGDDTFKKPHKTSTEQELITSMSLSQRNHGYSDDMEIGSPKKTTSTDQYNRILKNDVAAIENDTDEDFEITEVREVSEGVAKETKESHGDPNDSETTLKDSKMHEYTMTNGKAPLHTSINNSSTSSNDVLLEAFTNTQRICSNLKQELQKQQQDNAKLKVRLQSYASNSDKINEKVGKYKSCLETLQERIATLTSHKNNQETKLKDLRQNHQLYQRRISGFKTSIENLNKTINDLGKNKKEADAELMKKGKEIEYLKRELDDCSGQLSEEKIKNSSLIQEMGKNREEMIKSIENFFSEDKAHHLLQFNKFEERVHDLFEKKLQKHFDVAKDTLNVGLRNTTVELSSNTETMLKQQYEDIKENLEQKMSSSKDEMAKTINELSVTQKGLIMGVQEELLTSSGNIQTALVSEMNNTRQELLDDASQTAKNYASLENLVKAYKAEIVQSNEYEERIKHLESERSTLSSQKNQIISSLGTKEAQYEDLVKKLEAKNIEISQISGKEQSLTEKNENLSNELKKVQDQLEKLNNLNITTKSNYENKISSQNEIVKALVSENDTLKQRIQQLVEIKENEQKDHTTKLEAFQKNNEQLQKLNVEVVQLKAHELELEEQNRHLKNCLEKKETGVEESLSDVKTLKQQVIVLKSEKQDITAEKLELQDNLESLEEVTKNLQQKVQSQKRELEQKIKELEEIKNHKRNEPSKKGTQNFTKPSDSPKKNATTSNLFPNNSAAIHSPMKKCPKVDHISKSRINSSKETSKFNDEFDLSSSSNDDLELTNPSPIQIKPVRGKIKKGSNCMKPPISSRKKLLLVEDEDQSLKISKKRRRK
partner: B1 chain

Variants of: B1
Details: with smt3_yeast SMT3, Q12306
smt3_yeast SMT3, Q12306, sequence (Q12306 whole entry): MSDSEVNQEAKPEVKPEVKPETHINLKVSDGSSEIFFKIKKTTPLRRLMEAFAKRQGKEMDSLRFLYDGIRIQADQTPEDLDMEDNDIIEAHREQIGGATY

effect of a mutation on the interaction | Variant
decreasing interaction | I758R

Variants of: B1
Details: with smt3_yeast SMT3, Q12306
Remark: another data set of the same source

effect of a mutation on the interaction | Variant
decreasing interaction | S715R
decreasing interaction | T717R

Variants of: B2
Details: with red1_yeast RED1, P14291

effect of a mutation on the interaction | Variant
decreasing interaction | E862R
decreasing interaction | Q864R
decreasing interaction | D863R
